Drawing on publication PMC7494017, this text covers stoichiometry N, fold weakening of binding against WT dendrin PY23 and Kd for three substances.

pKd: −log10 of the molar value.

Assay [1] deals with SAV1 S245D-WW12ex (mouse). The experiment in a line: SEC-MALS. A general note: SEC sorts molecules by how far they enter the pores of the column.
Assay [2] has as its target SAV1 WW12 (aa E198-A268) (mouse) (UniProt Q8VEB2). The experiment in a line: ITC.
In assay [3] the target is SAV1 Y273E-WW12ex (mouse). Briefly: ITC. For orientation: ITC needs no label: the signal is the heat of the interaction.

For the substance SAV1 S245D-WW12ex (domain or fragment), the stoichiometry N (in general, a count of units in the complex or per binding partner) in assay [1] is 2. Regarding “Dendrin PY23 with the PPPY motif changed into PPDY (from UniProt Q80TS7 222-241) (domain or fragment)”, the fold weakening of binding against WT dendrin PY23 in assay [2] is 18 fold.

As to “Dendrin PY23 (aa D222-G241) (from UniProt Q80TS7 222-241) (domain or fragment)”, in assay [3], the pKd (as a rule, the negative decadic logarithm of the Kd, by convention in mol/L) is 5.42.
